Values quoted from earlier work in PMC6136348, “In the quest for new targets for pathogen eradication: the adenylosuccinate synthetase from the bacterium Helicobacter pylori” (Journal of Enzyme Inhibition and Medicinal Chemistry, 2018).

Biological target: Adenylosuccinate synthetase (Escherichia coli) (UniProt P0A7D4)

Adenylosuccinate synthetase, sequence (P0A7D4 2-432): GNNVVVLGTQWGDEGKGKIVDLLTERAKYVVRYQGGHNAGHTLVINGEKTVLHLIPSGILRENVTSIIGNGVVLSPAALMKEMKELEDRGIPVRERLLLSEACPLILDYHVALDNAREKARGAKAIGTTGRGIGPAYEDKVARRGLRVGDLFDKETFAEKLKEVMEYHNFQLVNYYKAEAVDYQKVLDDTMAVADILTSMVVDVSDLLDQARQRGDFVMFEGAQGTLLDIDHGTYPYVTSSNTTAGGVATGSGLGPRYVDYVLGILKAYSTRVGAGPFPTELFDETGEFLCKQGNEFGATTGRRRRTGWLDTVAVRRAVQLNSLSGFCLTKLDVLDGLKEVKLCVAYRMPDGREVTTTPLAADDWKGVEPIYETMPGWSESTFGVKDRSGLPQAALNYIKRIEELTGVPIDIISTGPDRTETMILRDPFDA

Kd: 10 µM
Substance: Adenylosuccinate synthetase (from UniProt P0A7D4)
